Experimental data reported in US20210024646A1 (published 2021).
Numbering of substitutions follows the chain as printed. Where “and” joins values, the source holds several entries; their conditions need not be identical. Equal entries are not always repeated. Where two headings read alike, the source gives them in different places.

T1: CD73 on the surface of human tumor cells (human, UniProt P21589 27-549)
T1 chain: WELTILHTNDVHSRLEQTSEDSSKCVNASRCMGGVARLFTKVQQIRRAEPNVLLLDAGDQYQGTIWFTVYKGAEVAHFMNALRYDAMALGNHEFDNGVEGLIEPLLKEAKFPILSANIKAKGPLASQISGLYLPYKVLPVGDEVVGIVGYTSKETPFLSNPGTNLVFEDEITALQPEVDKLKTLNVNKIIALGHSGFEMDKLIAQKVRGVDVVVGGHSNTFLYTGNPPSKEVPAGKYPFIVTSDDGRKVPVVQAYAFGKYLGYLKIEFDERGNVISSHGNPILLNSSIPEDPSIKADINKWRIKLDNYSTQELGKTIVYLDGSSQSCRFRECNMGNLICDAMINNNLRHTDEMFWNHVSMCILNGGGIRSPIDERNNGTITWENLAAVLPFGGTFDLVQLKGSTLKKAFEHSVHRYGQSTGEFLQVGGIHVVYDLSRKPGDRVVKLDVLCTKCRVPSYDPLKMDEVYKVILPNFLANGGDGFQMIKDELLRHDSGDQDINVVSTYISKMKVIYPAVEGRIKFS

T2: extracellular domain of human CD73 protein (CD73-ECD), C-terminus polyhistidine-tagged (UniProt P21589 27-547)
T2 chain: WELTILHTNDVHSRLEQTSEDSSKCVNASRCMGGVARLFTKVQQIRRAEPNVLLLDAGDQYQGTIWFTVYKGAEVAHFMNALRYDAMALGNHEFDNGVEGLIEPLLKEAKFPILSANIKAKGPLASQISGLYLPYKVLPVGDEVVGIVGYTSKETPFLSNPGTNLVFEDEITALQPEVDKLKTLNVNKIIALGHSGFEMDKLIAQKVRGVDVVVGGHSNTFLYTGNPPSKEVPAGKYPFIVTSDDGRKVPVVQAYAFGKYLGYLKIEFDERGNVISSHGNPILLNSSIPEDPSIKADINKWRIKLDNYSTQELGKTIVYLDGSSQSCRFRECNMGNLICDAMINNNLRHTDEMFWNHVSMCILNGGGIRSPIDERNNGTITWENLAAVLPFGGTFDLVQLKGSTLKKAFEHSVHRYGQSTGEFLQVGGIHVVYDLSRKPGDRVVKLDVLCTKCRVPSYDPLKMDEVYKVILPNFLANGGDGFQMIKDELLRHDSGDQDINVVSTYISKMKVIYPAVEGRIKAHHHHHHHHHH

T3: Carbon-terminal polyhistidine-labeled recombinant cynomolgus monkey CD73 enzyme (cynomolgus monkey, UniProt A0A2K5V5U7 1-547)
T3 chain: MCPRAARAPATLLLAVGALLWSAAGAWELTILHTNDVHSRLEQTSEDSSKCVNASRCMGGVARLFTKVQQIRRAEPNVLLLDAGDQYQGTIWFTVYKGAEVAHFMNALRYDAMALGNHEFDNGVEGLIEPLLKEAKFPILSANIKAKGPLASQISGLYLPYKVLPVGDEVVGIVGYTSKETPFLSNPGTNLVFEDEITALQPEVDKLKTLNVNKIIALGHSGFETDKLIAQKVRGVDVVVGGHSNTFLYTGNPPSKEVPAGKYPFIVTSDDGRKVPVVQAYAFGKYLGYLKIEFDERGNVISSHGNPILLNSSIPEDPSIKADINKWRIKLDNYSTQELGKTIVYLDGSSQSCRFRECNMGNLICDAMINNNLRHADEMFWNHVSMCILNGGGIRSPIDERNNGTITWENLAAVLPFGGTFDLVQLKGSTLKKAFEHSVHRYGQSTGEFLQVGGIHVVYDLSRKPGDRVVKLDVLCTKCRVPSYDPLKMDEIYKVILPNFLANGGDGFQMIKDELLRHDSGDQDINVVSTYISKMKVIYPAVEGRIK

B1: mAb001c (antibody, V domains shown)
VH: QVQLQQSGPELVKPGASVRISCKTSGYTFTNYYIYWVKQRPGQGLEWIGWIYPGNLNIKYNEKFKGKSTLTADKSSSTAFMQLSSLTSEDSAVYFCARDDNYAWFAYWGQGTLVTVSS
VL: DIVMTQSHKFMSTSIGDRVSITCKASQDVSTAVAWYQQKPGQSPKLLIYWTNTRHTGVPDRFTGNTSGTEHTLTISSVQAEDLALYYCQQHYSTPFTFGSGTTLEIK
B2: mAb002c (antibody, V domains shown)
VH: QVQLQQPGAELVKPGASVRLSCKASGYTLTSYWMHWVKKRPGQGLEWIGEINPSNGRSNYNEKFKSKATLTVDRSSSTVYMQLGSLTSEDSAVYYCARRGVSGNYFDYWGQGTTLTVSS
VL: DIKMTQSPSSMYASLGERVTMTCKASQDINTYLSWFQQKPGKSPKTLIYRSNILVDGVPSRFSGSRSGQDYYLTITSLEYEDMGIYYCLQYDEFPYTFGGGTKLELK
B3: mAb001c-VK-SGS (antibody, V domains shown)
VH: B1 VH
VL: B1 VL with N65S, T66G
B4: mAb002c-VH-NA (antibody, V domains shown)
VH: B2 VH with G56A
VL: B2 VL
B5: mAb002c-VH-QG (antibody, V domains shown)
VH: B2 VH with N55Q
VL: B2 VL
B6: mAb002c-VK-SG (antibody, V domains shown)
VH: B2 VH
VL: B2 VL with D56S

Legend:
[1] = molecular target: T1, CD73 on the surface of human tumor cells; assay: FACS; MDA-MB-231 cells
[2] = molecular target: T2, extracellular domain of human CD73 …; assay: enzyme inhibition; left table
[3] = molecular target: T3, Carbon-terminal polyhistidine-labeled …; assay: enzyme inhibition; left table
[4] = molecular target: T2, extracellular domain of human CD73 …; assay: enzyme inhibition; right table
[5] = molecular target: T3, Carbon-terminal polyhistidine-labeled …; assay: enzyme inhibition; right table
[6] = molecular target: T1, CD73 on the surface of human tumor cells; assay: FACS; NCI-H1299 cells, left table
[7] = molecular target: T1, CD73 on the surface of human tumor cells; assay: FACS; MDA-MB-231 cells, left table
[8] = molecular target: T1, CD73 on the surface of human tumor cells; assay: FACS; MDA-MB-231 cells, right table
[9] = molecular target: T1, CD73 on the surface of human tumor cells; assay: FACS; NCI-H1299 cells, left table
[10] = molecular target: T1, CD73 on the surface of human tumor cells; assay: FACS; NCI-H1299 cells, right table
[11] = molecular target: T1, CD73 on the surface of human tumor cells; assay: FACS; MDA-MB-231 cells, left table
[12] = molecular target: T1, CD73 on the surface of human tumor cells; assay: FACS; MDA-MB-231 cells, right table
[13] = molecular target: T1, CD73 on the surface of human tumor cells; assay: inhibition of cell-surface CD73 enzyme activity; left panel
[14] = molecular target: T1, CD73 on the surface of human tumor cells; assay: inhibition of cell-surface CD73 enzyme activity; right panel
[15] = molecular target: T2, extracellular domain of human CD73 …; assay: ELISA
[16] = molecular target: T2, extracellular domain of human CD73 …; assay: ELISA
[17] = molecular target: T1, CD73 on the surface of human tumor cells; assay: FACS; NCI-H1299 cells, right table

Binder	EC50 [1] [nM]	IC50 [2] [nM]	IC50 [3] [nM]	IC50 [4] [nM]	IC50 [5] [nM]	EC50 [6] [nM]	EC50 [16] [nM]	also measured
B1	1.19	0.03	0.04	0.02	0.04	1.48	–	EC50 [7]: 0.45 nM; EC50 [8]: 0.618 nM
B2	0.544	0.037	0.039	0.038	0.039	–	–	EC50 [9]: 0.658 nM; EC50 [10]: 0.53 nM; EC50 [11]: 0.466 nM; EC50 [12]: 0.466 nM; IC50 [13]: 0.317 nM; IC50 [14]: 0.363 nM
B3	–	–	–	–	–	1.62	0.073	EC50 [15]: 0.099 nM and 0.054 nM; EC50 [17]: 1.65 nM
B4	–	–	–	–	–	–	0.051	–
B5	–	–	–	–	–	–	0.05	–
B6	–	–	–	–	–	–	0.063	–
